The values that follow come from patent US20260265404A1 (FRED HUTCHINSON CANCER CENTER, published 2026).

B1: 2D3 antibody (human CD33V-set antibody clone, hybridoma-derived) (antibody, V domains shown)
VH: EVQLLESGGGLVQPGGSLSLSCAASGFTFSIYAMSWVRQAPGKGLEWVSAISDSGGTTYYADSVKGRFTISRDNSKNMLYLEMNSLRAEDTAIYYCAKRTRYFNGMDVWGQGTTVTVSS
VL: EIVMTQSPATLSLSPGERATLSCRASQSGSSSFLSWYQQKPGQAPRLLIYGASTRATGIPARFSGSGSGTDFTLTISSLQPEDFAVYYCQQDYNLPFTFGPGTKVDIK
notes: also called clone 2D3
B2: 1H8 antibody (human CD33V-set antibody clone, hybridoma-derived) (antibody, V domains shown)
VH: QVQLVESGGGVVQPGGSLRLSCAASGFTFGSYGMHWVRQAPGKGLEWVAVIWYDGSNEYYADSVKGRFTVSRDNSKHTLYLQMNRLRAEDTAVYYCARDLDYDSSGGDYWGQGILVLVSS
VL: EIVLTQSPDFQSVTPKEKVTITCRASQNIGGNLHWYQQKPDQSPKLLIRYATQPFSGVPSRFGGSGSGTDFTLTINSLEAEDAATYYCHQSSSLPLTFGGGTKVEIK
notes: also called clone 1H8
B3: 1H10 antibody (human CD33^PAN antibody clone, hybridoma-derived) (antibody, V domains shown)
VH: QVQLVQSGAEVKKPGASVKVSCKGSGYIFTSYDMHWVRQAPGQGLEWMGIIDPSGGSTSYAQKFQGRVTMTRDTSMSTVYMELSSLRSEDTAVYYCTRDYSWSYFDYWGQGTLVTVSS
VL: AIQMTQSPSSLSASVGDRVTITCRASQGIRIYLGWYQQKPGKAPKLLIYATSSLQSGVPSRFSGSGSGTDFTLTISSLQPEDFATYYCLQDYNYPWTFGQGTKVEIK
notes: also called clone 1H10
B4: 1A9 antibody (human CD33^PAN antibody clone, hybridoma-derived) (antibody, V domains shown)
VH: EVQLVESGGGLVQPGGSLRLSCAASGFTFSIYDMHWVRQATGKGLEWVSAIGTAGDTYYAGSVKGRFTISRENAKNSLYLQMNSLRAGDTAVYYCAREYSGYYFDYWGQGTLVTVSS
VL: AIQMTQSPSSLSASVGDRVTITCRASQDIRNDLGWYQQKPGKAPKILIYGASSLQSGVPSRFSGSGSGTDFTFTISSLQPEDFATYYCLQEYNYPCTFGQGTKLEIK
notes: also called clone 1A9
B5: 1E6 antibody (human CD33^PAN antibody clone, hybridoma-derived) (antibody, V domains shown)
VH: QVQLVESGGGVVQPGRSLRLSCAASGFTFSSYDIHWVRQAPGKGLEWVAVIWYDGSHNYYSDSVKGRFTISRDNSKNTLYLQMNSLRAEDTAVYYCARDYSGSYYDYWGQGTLVTVSS
VL: AIQMTQSPSSLSASVGDRVTITCRASQGIRNDLGWYQQKPGKAPKLLIYAASNLQSGVPSRFSGSGSGTDFTLTISSLQPEDFATYYCLQDYSYPRTFGQGTKVEIK
notes: also called clone 1E6
B6: 1B9 antibody (human CD33^PAN antibody clone, hybridoma-derived) (antibody, V domains shown)
VH: QVQLVESGGGVVQPGRSLRLSCAASGFIFSSYDIHWVRQAPGKGLEWVAVIWYDGSHNYYSDSVKGRFTISRDNSKNTLYLQMNSLRAEDTAVYYCARDYSGSYFDYWGQGTLVTVSS
VL: AIQMTQSPSSLSASVGDRVTITCRASQDIRNDLGWYLQRPGKAPKLLIYAASSLQSGVPSRFSGSGSGTDFTLTISSLQPEDFATYYCLQDYSYPRTFGQGTTVEIK
notes: also called clone 1B9
B7: 1D2 antibody (human CD33^PAN antibody clone, hybridoma-derived) (antibody, V domains shown)
VH: QVQLVESGGGVVQPGRSLRLSCAASGFTFSSYDIHWVRQAPGKGLEWVAVIWYDGSQKYYADSVKGRFTISRDNSKNTLYLQMNSLRAEDTAVYYCARDYSGSYYDYWGQGTLVTVSS
VL: AIQMTQSPSSLSASVGDRVTITCRASQGIRNDLGWYQQKPGKAPELLIYATSSLQSGVPSRFSGSGSGTDFTLIISSLQPEDFATYYCLQDYSYPRTFGQGTKVEIK
notes: also called clone 1D2

The target of the first assay is T1, human full-length CD33 (CD33^FL) (human, UniProt P20138 18-364).
T1 construct: also called Siglec-3
T1 sequence (P20138 18-364): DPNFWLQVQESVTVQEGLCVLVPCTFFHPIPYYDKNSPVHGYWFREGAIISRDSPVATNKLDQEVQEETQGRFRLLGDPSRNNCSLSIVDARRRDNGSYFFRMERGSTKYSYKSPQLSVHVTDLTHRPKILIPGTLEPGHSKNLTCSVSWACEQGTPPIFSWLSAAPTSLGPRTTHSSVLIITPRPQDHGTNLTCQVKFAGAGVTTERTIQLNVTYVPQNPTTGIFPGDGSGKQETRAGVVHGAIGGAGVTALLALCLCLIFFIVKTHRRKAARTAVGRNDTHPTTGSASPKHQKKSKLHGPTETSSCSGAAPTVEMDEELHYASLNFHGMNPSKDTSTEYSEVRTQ
Kind of assay: flow cytometry on REH subline expressing CD33^FL. In general terms: Flow cytometry measures light scatter and fluorescence of single cells or particles in a stream.
With B1, the binding result is listed as “binds”.

As for B2, the binding result is listed as “binds”.

With B3, the binding result is on record as “binds”.

Another assay has as its target T1, human full-length CD33 (CD33^FL). Briefly: flow cytometry on parental CD33+ ML-1 cells against ML-1 CD33 KO cells (endogenous CD33).
Take B4: the binding result is “binds”. Still for that read-out and setting: the same measure for B5: “binds”; for B6: “binds”; for B7: “binds”.
